Laboratory results from article PMC11290853.
Where a chain is given by its changes, count along the chain named. Where two headings read alike, the source gives them in different places.

Columns and labels:
[1] = target: T1, CCK1R(Y140A) expressed in HEK-293 cells (human), P32238; assay: radioligand binding
T1 chain: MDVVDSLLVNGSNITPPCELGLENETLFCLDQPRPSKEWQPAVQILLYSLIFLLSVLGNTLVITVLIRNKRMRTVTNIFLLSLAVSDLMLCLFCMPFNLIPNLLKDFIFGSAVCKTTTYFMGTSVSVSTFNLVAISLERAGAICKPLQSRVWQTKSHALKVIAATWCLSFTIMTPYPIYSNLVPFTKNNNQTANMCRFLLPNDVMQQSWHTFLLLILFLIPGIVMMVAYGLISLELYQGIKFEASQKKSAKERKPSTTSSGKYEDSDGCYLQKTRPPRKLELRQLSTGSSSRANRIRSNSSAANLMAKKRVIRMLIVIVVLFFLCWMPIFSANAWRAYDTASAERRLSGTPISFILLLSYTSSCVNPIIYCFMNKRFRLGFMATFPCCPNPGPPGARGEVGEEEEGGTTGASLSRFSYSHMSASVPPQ

[2] = target: T2, type 2 cholecystokinin receptor, wild type, expressed in HEK-293 cells (human), P32239; assay: radioligand binding
T2 chain: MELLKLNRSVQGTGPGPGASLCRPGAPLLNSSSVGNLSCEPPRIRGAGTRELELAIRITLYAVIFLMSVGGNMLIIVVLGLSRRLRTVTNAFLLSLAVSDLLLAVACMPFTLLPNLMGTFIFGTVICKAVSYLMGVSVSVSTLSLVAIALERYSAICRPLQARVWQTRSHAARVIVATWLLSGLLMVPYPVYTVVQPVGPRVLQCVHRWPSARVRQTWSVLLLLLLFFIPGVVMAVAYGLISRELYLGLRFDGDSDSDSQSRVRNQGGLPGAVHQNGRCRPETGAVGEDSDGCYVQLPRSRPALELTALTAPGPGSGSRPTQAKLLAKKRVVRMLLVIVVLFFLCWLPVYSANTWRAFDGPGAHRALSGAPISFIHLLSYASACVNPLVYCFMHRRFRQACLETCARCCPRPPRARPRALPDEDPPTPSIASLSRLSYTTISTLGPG

[3] = target: T3, type 1 cholecystokinin receptor, wild type, expressed in SRD15 cells (human), P32238; assay: radioligand binding
T3 chain: T1 chain with A140Y

[4] = target: T4, CCK1R(sterol 7M) expressed in HEK-293 cells (human), P32238; assay: radioligand binding
T4 chain: T1 chain with F130L, S136A, A140Y, G141S, I216L, L219F, I223V, M226A

[5] = target: T5, type 1 cholecystokinin receptor, wild type, expressed in CHO-K1 cells (human), P32238; assay: radioligand binding
T5 chain: T1 chain with A140Y

[6] = target: T6, type 1 cholecystokinin receptor, wild type, expressed in HEK-293 cells (human), P32238; assay: radioligand binding
T6 chain: T1 chain with A140Y

[7] = target: T7, CCK2R(sterol 7M) expressed in HEK-293 cells (human), P32239; assay: radioligand binding
T7 chain: T2 chain with L143F, A149S, S154G, L225I, F228L, V232I, A235M

[8] = target: T1, CCK1R(Y140A) expressed in HEK-293 cells …; assay: radioligand binding
[9] = target: T2, type 2 cholecystokinin receptor, wild …; assay: radioligand binding
[10] = target: T4, CCK1R(sterol 7M) expressed in HEK-293 …; assay: radioligand binding
[11] = target: T6, type 1 cholecystokinin receptor, wild …; assay: radioligand binding
[12] = target: T7, CCK2R(sterol 7M) expressed in HEK-293 …; assay: radioligand binding
[13] = target: T1, CCK1R(Y140A) expressed in HEK-293 cells …
[14] = target: T2, type 2 cholecystokinin receptor, wild …
[15] = target: T3, type 1 cholecystokinin receptor, wild …
[16] = target: T4, CCK1R(sterol 7M) expressed in HEK-293 …
[17] = target: T5, type 1 cholecystokinin receptor, wild …
[18] = target: T6, type 1 cholecystokinin receptor, wild …
[19] = target: T7, CCK2R(sterol 7M) expressed in HEK-293 …

pIC50 [1]: 4.3 | pIC50 [2]: 7.7 | pIC50 [3]: 5.5 | pIC50 [4]: < 4 | pIC50 [5]: 4.5 | pIC50 [6]: 4.2 | pIC50 [7]: 7.2 | pIC50 [8]: 4.3 | pIC50 [9]: 7.8 | pIC50 [10]: < 4 | pIC50 [11]: 4 | pIC50 [12]: 7.6 | iCa^2+, pEC50; HEK-293 cells, + Chol [13]: 5.7 | iCa^2+, pEC50; HEK-293 cells, control [13]: 5.7 | iCa^2+, pEC50; HEK-293 cells, + Chol [14]: 9.4 | iCa^2+, pEC50; HEK-293 cells, control [14]: 9.5 | iCa^2+, pEC50; SRD15-CCK1R cells [15]: 6.8 | iCa^2+, pEC50; SRD15-CCK1R cells + MβCD (cholesterol depleted) [15]: 5.7 | iCa^2+, pEC50; HEK-293 cells, + Chol [16]: 6.8 | iCa^2+, pEC50; HEK-293 cells, control [16]: 6.7 | iCa^2+, pEC50; CHO-CCK1R cells [17]: 5.3 | iCa^2+, pEC50; HEK-293 cells, + Chol [18]: 6.2 | iCa^2+, pEC50; HEK-293 cells, control [18]: 5.5 | iCa^2+, pEC50; HEK-293 cells, + Chol [19]: 9.2 | iCa^2+, pEC50; HEK-293 cells, control [19]: 9.1
Binder: WMDF (modifications not checked) [CCK-4, C-terminal tetrapeptide of cholecystokinin]
